A protein production outcome set (Wang et al. 2014)

Experiment: label from the status in PepcDB records

| Sequence | protein production |
| --- | --- |
| MRFVLRILKALALLLVLLVITAAGWLFIRPPELLRVGDGYAAKIVCSNVFIAGREAEDVLHDDVQAPGNPLLRLLRVSVDRDNDRVTARFMGLFAPSYALYRGAFGCTSVPDGNFEAAAKAAPFDPPAKMQANDALWPEGEGTGNPADGKIAALLSDAGVAGPAMRAIVVVRNGRIVTEAYGPGFSAKTPLIGWSMTKTVNATILGRLMLGGKISFDDDNLLAQWKNDARAKIKVSDLLGMESGLAFNENYGDVADVTRMLYLDPDMVSLPAGAPMEAAPGQRFRYSSGTAVLLSRIWMDRVGNAQAAFSYPHDALFAPLGMTSAVFELDARGTFAGSSYLYATAHDWARFGQFLLQDGVWNGQRLLPEGFVGAMRTPTAASNGRYSQGQAWLSPGRGSSAGAGLPEDTFWLTGHDGQSVAIVPSANLVVVRLGLTPSRLGYQPQTLLKAILAALPQSGAQQQAGSQRQAQPQP | failed |
| MRRCCGDLAASRGGCEPASRNLTRTRLTFAALGRINRPAEHDREDAMTRQEARDHEPRDQDAALSRRTLVRGLALGAAATMAGPALAQTGPAAPPTTITTPPRDFGPNGAPTTYFWDPDIIAVDPSFDDLAQPNTAIKRLYTGVLWAEGPAWSAQGRYLLWSDIPNNRQMRWSEDDGRISVFRSPSNNSNGNSFDFQGRQLSCEHLTRRVTRYEHDGTATVLCDNYNGKKLNSPNDVVAHPDGSYWFTDPPYGGQLYEGEPDAAGGPSNSGGKLNPRIGQPAGFTPGKRELPTNCYRIDPSGRVDLVVTEEQVPDPNGLCFSPDFKKLYVVSTGKGPGDSGPGGKGEIFVFDVGADNKLSNQKRFSDCTIDGVKCGPDGVRCDVNGNVWASSNAGRAVGYSGVTVWSPEGKLLGRIRLPEVCGNICFGGPKRNRLFMAASQSLYAVFTATQGAGPGLEHHHHHH | not failed |
| MSGLRVYSTSVTGSREIKSQQSEVTRILDGKRIQYQLVDISQDNALRDEMRTLAGNPKATPPQIVNGNHYCGDYELFVEAVEQDTLQEFLKLA | not failed |
| MVTGIVFHEEYLKHEQSPTHPERRERLAYTMDQLREEGIFESERIVLLEPFKASLEDVLEVHTEEYVRFLEMESKKGGIIDFDTNIPVGVFDRALLAAGGAIRAAQAVLNKECENAFAMIRPPGHHAKPYIGAGFCYLNNMAIMVKWLLKQGFERIAILDWDAHHGDGTQEIFYNDDRVLFISTHQMPLYPGTGYPEECGTGKGEGYTVNIPLPPGTGDEGYMMVIDEIIEPVVNEFKPQFIAISAGQDNHFTDPITSLALTARGYAEMMRRAVAMAEKHCDGRLVAVLEGGYSVEGALPYTNLGIIAAMAGFDLSAIREPENYLPELLWRKRDSALVKLKHNIEDVKRVHSKYWKCFK | failed |
| MNGMGGALRAASGKLNGLLNFARQLAFVKLFGVYLPRNNQFNNATACADLLCKAEVIPGSESHFRPRRQPDASGAASGIAGRQSAGASGARQQSSNEENHDARRHGRRGRVHRDRAFRNRMRGERSARRHRSGIGRLIRRALRSRAAHGIARRRVSRAIAGGVGRGRPGRGHDARGGDAGRRRRDGRAIRAAAGCGHARAGRARAGHAHVGRARVRRHDSRRFVAMGEYGGLAARLGCARRFQHRCAGDAARLVRGCAAGARREPRPHVRADPGDSLSRQSRVARCRARSGLMRVLFAISLLAVAWLAGCTGLRGGIERDARRESNESAALFKRASDGDNSVHALAPVVVDDGLWVSAGAVKLRSGEQLPPLFDEPASFDRAVSSLSEFAEQITRLTQVPTQVAASAQQAAARSQQGGGADGAARSAPVFLDAAGARSTPPLPPGMPGGASAGGGKAGGSGAGPDGGAGTSFAPVRIVYAGGTLRGLLDAACARFGVFWKYEQGTIRFFFTDTRTFQVNAIPGDSSLNASVVSGATSDGTSGGSQSGGSGGGINGASGGTTGLTANNTANTAVNSQLSVFNGLQSAIQSMLSRYGSSVSSPATGSISVTDTPDVLERVAAFMTQQNRSLSRQVLLNVTVLSVSLKAGDAYGIDWSLVYKTMSAGFNITNPFNPVSLTKPADLSATVLSPTSRFNGTKLLIRALSQQGTVRRKTSASVTTLNNQPVPVQVATQTGYLASVSTTNTANVGSSTALTPGVVTTGFNMTLLPHVLDDGTVMLQFSTNISSLLQLKEVSSSTGGRSAARIQTPDVDMRNFLQRVAMKSGETLVISGYEGANDSLDERGVGTPKMIALGGGYEAQRAREVIVILITPVTQRGGA | failed |
| MSLTGRAFAIPLRTRFRGITVREGMLVRGAAGWGEFSPFAEYGPRECARWWAACYEAAELGWPAPVRDTVPVNATVPAVGPEEAARIVASSGCTTAKVKVAERGQSEANDVARVEAVRDALGPRGRVRIDVNGAWDVDTAVRMIRLLDRFELEYVEQPCATVDELAEVRRRVSVPIAADESIRRAEDPLRVRDAEAADVVVLKVQPLGGVRAALRLAEECGLPVVVSSAVETSVGLAAGVALAAALPELPYACGLATLRLLHADVCDDPLLPVHGVLPVRRVDVSEQRLAEVEIDPAAWQARLAAARAAWEQVEREPGPEGHHHHHH | not failed |
| MRKARGIKLIAVFLVAAVVNVVFGFCVLAKAQILKKPAENSYVFDYANLIDSSDEEEMRALAKEIEDKSKAEIVVVTVETLGSYTIEEYANELFRSWEIGDKELNNGVLILVNKENLLLGKKGRIRIEVGYGLEGAITDGKAGRTLDEYAIPAFERNEYSKGIRDTFLAVASEVANEYGLKIDGLSGYGASEDVNENEVTSDGNAENVVDVPFGLGIGAGLIVGFGLFFFIIFLMVIVILYNQPYAGKKYEWTWKNGKWEKKVYVYRYDDLWKNNRSFFDDSDDSDSFGSGGGFGGFGGGSSGGGGASR | failed |
| MKADILLVSHSKMITDGIKEMIEQMNASEEITIHSLGGTSDGSLGSDPMKIIDTINEADSDREFLIFADLGSAVLSSELAFDMLEEDQQKHYHLVDAPLVEGAFASAITAGVSDDLTQILAEAQNAGKKGWN | not failed |
| AKRVVFVTVGTTSFDALVKAVVSQNVKDELQKRGFTHLLIQMGRGIFFPTKCDGADGSLVVDYFTFSSSIADYIRSASLVISHAGSGSIFETLKLGKPLIVVVNEDLMDNHQCELAEALEERKHLYYTRPHSLHQTLTKMELGSLVQYTPGDGTPVARIIDRFLG | failed |
| MNSELTFKQGLKDTMPTVFGYIGIGIAFGMIGHSEGFSVWVILLLSLIVYAGSAQFIMVSMLATHSPIMSIVLSVFLVNSRIILMSMTTASYFKNESLLKNILLGTLLTDESFALGMNKQNYTEGKLNFSWFNASNLLAYLVWALASAIGALLGNLLANPEKLGLGFAVIAMFIGLLYLQLISDKTLGLMLQLVMVGITLVLFYFGLIFLPSNLLVLFVTLIACALGVGVKRVFF | failed |
| KRPGNILIGTLPVGLDFPTRIVAEIVDAPSLTIEEIMRKAKYYLREGADIIDIGMESGKTNVEFLESVLPEIKEKINAPLSLDTLNPKEIEAGEKEVDLILSVDFGTVEEILPSKPVVLIPTNMKEGKFIEDPIGRAKALEKLKEKALNLGYKGLILDPILEHYPNFSRSLVAFYLYRMRNPQDILLAGVGNITEMMDADSVGLNALLASIAGELKISLLLTTEVSPKATGSVRELKRGIDMVLL | failed |
| LRGMLPGSKLCEKKIVLSPSANMAAELKSEGKLFMLKRLRLADLEPMAIETSLLPINRFPSLENRNFENESLYEILEEEYNIKMTKAQQKIEVRMPTPQESELLDINYTIPVFHFKQVTFDQNDTIFEVAHSVYRGDRYEIETEIYR | failed |
| MTAEPAATSAPLSGPVAVIGCGWVGWPLARALLVAGAEVRGSATTPEKVAALRAEGVAATRLRLTPDTSPESDELTELLRGAHRLVLTVPPGRGPERERYAEYLSPVAQAAALHGVRQLIFTSSTGVYPNDPHVMTESDALATPDSPSPLLRAEAALAAAGVPLTVLRFAGLYGPGRPPGRFLAGRTEVGEGSAPVNLVHLDDCVGAVQHMLGGDFGGQTFNVCAAAHPLRRDFYPAAARALGLEAPSFAPHEGGGKIIGSEAFRAATGYHFRHDDPLSDLHTLGNGQGA | failed |
| MSTFAFNLGGEFDKSFLSTPKAYGDVIKALPQNASKIELDYASVYDYDTDGCYATAAISPDGTTNPGLSLGGSPESVCRDVNRLENSNTYSRAKSNNGWTAIMYASYFEKDQSTSGPVALGHRHDWEHTIVWVKDSQVQYVTYSAHGNWYTNPRSNVRFDGNHPKIVYHKDGGSTHAFRLANSNDEPPENYYHQWLQLPMVGWNGYPSPNIREKLMTTNFGDATLEIKDGRFEKALANAKPPINFDPYAPELEDGGTYQIVSILNNSSVVDLNQADGNVQLWQNGNANNQKWKLVYDSNKSAYQIKNIANQNLVLTWNNLNGSNNVVATTNQNKEEQYWIPTEAGNGYYYVRNKKDQNKVLDVSGYGTANGTNVTVYNFHGGNNQTFQLSNVTGTLTREVESLYKAQPGQTSRSSNNFSLEHLAAGTKVRVVLEGAGATSLSFKIARDKSGTDPVIWSNVRDGSILTIPSGDDRKNLYIAGPPSGYTSNGTFKVKFYALPN | failed |
| MKSDYELSLRDYIAIIKDRALVLGVSAAVILAATVAVALMVPPIYQSTGTILVESQQISPELVSTNNTSFADERIEVIRQRVMTRDNLLRIIGKYDLFADKRFSESDKIDQMRNAIVVETLTTYVRGRGEATVAFNVSFEHKQPQVAKEVADELVTLFLNENLKQRTERANETTEFLTQEANKLGAELASLENQLADFKQAHANALPEHQTLRMNMLSRAELEFREVDRDYKAAQEELRYLELELSAANAGLATKVAEGTRPTRADLPEDLPSLKAEYAQLLTRYKDAHPDVVAVKRKIQALEASGGRTAAVSTVSLDAARVRAKMSAAQVRIASLAEQKRELTRKMEGYEAEILEAPQVERGLVTLMRDHDNARKKYEEIRAKEMGAKITESLEQENKAERFVLLEPPLLPEKPIKPNRKKIAALGLVLAPAGGGALVMLLEMLNQRVRGVGALESLLGKRVLVALPYIDTRADVARRKRWRNRLILAALALAAIMIGLVHVFYMPLDVLL | failed |
| MENNPNNNQASLERNELHNTIWKVANELRGSVDGWDFKQYVLGILFYRYISENMTHYINKEERKRDPSFDYAKLSDEKAERGRKHLIEQKGFFIPPSALFCNALKNACHNEDLNVTLQNIFNEIEKSSLGTPSEENVKGLFADLDVNSNKLGSSHQNRVEKLTKILEAIGGMQLGDYLKSGIDVFGDAYEYLMAMYASNAGKSGGEFFTPQEVSELLAKITLHGQESVNKVYDPCCGSGSLLLQFSKVLGDKNVSKGYFGQEINLTTYNLCRINMFLHDINYSKFHIAHGDTLLDPKHEDDEPFDAIVSNPPYSTKWVGDSNPILINDERFSPAGVLAPKNAADLAFTMHMLSYLSNSGTAAIVEFPGVLYRGNAEAKIREYLVKENVIDCVIALPDNLFFGTSIATCILVLKKNKQDDTTLFIDASKEFVKEGKKNKLKERNREKILQTYIERKEIKHFCALANIEKIKENDYNLSVNRYVEQEDTKEAIDIKALNSEIAQIVEKQSALRNRLESIIKELEGGQNA | failed |
| MIMNTKERSLLGSWIIWSVAYYMYYPFISIYLSRFVEESKLSLFFVVFQAVSLPLPLIGARLSKRNRILPIIIGMLVGGIGMIMLPFSRNILEATIFMSLNYFISLSLPSYYSLMSEVGEGTITRIWSLSILPSIIMPSLGGLLAQYFGLRLLFMIGGIVLATSFLPMVNSSYNSSSQSLLNFNITIRSFLPAILILPIAMEFPYIYLVVYNYFHLTKEYVGIIATSAEILGMLLTYLASKLIFRKKYLLSLSLFLFSLTSLYFLSPTIAIFFGCWEVIVPLTLEYFSSRKTVYDFALITTMQGLGWVLGYLIDYFIPNISLLLLSSSLIAFLLALMIVFTKD | failed |
| MSISISSIPDLTTVRARHPEAIAEAAARRVRRPLIGDSGRLMIVAADHPARGALGVGDRGLAMANRADLLERLCTALSRPGVDGVLATADVLEDLLLLGVLENKVVMGSMNRGGLAGAAFEMDDRFTGHRAEDIARLRFDAGKLLLRIDYDDPGSLTTMEASARAVDAMAARELPLFVEPFISRRIDGRVRNDLSAEAVTRSVAIASGLGGTSAYTWLKLPVTRNPDDMAEVLETSTLPAVLLGGDIGGSPADQTAAYERWRKALRLPTVQGMVVGRSLLYPAGGSVEEAVDTAVGLL | failed |
